Experimental findings from paper PMC9293779 (2022) are described below.

Bounds are passed on as bounds.

In the test the target is Unmodified H3 (15–39) (Homo sapiens, matured GFP-type chromophore; AG itself is the assayed negative control. Accession is from memory; wild-type AG assumed rather than the monomeric version). Nature of the test: ITC.

B1: Azami-Green (AG) protein alone (natural protein)
chain: MSVIKPEMKIKLCMRGTVNGHNFVIEGEGKGNPYEGTQILDLNVTEGAPLPFAYDILTTVFQYGNRAFTKYPADIQDYFKQTFPEGYHWERSMTYEDQGICTATSNISMRGDCFFYDIRFDGVNFPPNGPVMQKKTLKWEPSTEKMYVRDGVLKGDVNMALLLEGGGHYRCDFKTTYKAKKDVRLPDYHFVDHRIEILKHDKDYNKVKLYENAVARYSMLPSQAK
B1 registered an equilibrium dissociation constant (Kd) of more than 1 mM.
